# Several values for one entry are separate records, joined by “and”; a condition that tells them apart may be missing. Identical values can stand only once.
# B1: BTNL3 IgV domain (wild type) (domain or fragment)
# chain: QWQVTGPGKFVQALVGEDAVFSCSLFPETSAEAMEVRFFRNQFHAVVHLYRDGEDWESKQMPQYRGRTEFVKDSIAGGRVSLRLKNITPSDIGLYGCWFSSQIYDEEATWELRV
# Legend:
# [1] = molecular target: BTNL3 IgV domain (wild type) (UniProt Q6UXE8); assay: SPR; details: parent: est. 1; read off a plot
# [2] = molecular target: BTNL3.8 heterodimer on 293T cells (human) (UniProt Q6UXE8)
# [3] = molecular target: Soluble endothelial protein C receptor (EPCR) (UniProt Q9UNN8); assay: SPR; details: parent: est. 1; read off a plot
# Chain of UniProt Q9UNN8 (Q9UNN8 whole entry, looked up, tested part not stated): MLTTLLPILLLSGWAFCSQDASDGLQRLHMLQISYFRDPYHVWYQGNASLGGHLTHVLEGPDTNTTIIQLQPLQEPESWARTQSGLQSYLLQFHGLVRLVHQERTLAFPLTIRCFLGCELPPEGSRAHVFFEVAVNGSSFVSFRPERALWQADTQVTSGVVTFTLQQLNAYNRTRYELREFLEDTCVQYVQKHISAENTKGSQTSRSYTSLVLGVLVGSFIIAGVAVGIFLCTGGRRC
# soluble Vγ4Vδ1 TCR = assay: flow cytometry on cells; details: anti-His mAb, read off a plot
# [4] = molecular target: LES Vγ4Vδ5 TCR, soluble, wild type (human); assay: SPR; BIAcore3000; biotinylated wt or mutant LES TCR (1000-3500 RU) captured on streptavidin-coated CM5 chip; analyte (BTNL3 or BTNL8 IgV, EPCR) 1-200 μM; HBS-EP; 25°C; equilibrium analysis
# [5] = molecular target: LES Vγ4Vδ5 TCR, soluble, wild type (human); assay: as above; remark: listed apart in the source
# [6] = molecular target: LES Vγ4Vδ5 TCR, soluble, wild type (human); assay: SPR; competition: wt EPCR (2500-3000 RU) immobilised on the chip; LES TCR injected at 12.5 μM with increasing BTNL3 IgV (3.5-113 μM) or BTNL8 IgV (2.2-70.5 μM); response as percent of that without competitor
# [7] = molecular target: LES Vγ4Vδ5 TCR, soluble, wild type (human); assay: ITC; iTC200; 20°C; 20mM Tris pH 8, 50 mM NaCl; TCR in the cell at 70 μM, BTNL3 at ten-fold higher concentration titrated as 20 × 2 μl injections; single independent binding site model
# [8] = soluble Vγ4Vδ1 0.1 µg/ml (read from x axis), parent: est. 9.0
# [9] = soluble Vγ4Vδ1 10 µg/ml (read from x axis), parent: est. 31
# [10] = soluble Vγ4Vδ1 about 2 µg/ml (read from x axis), parent: est. 16
# Chain of UniProt Q6UXE8 (Q6UXE8 whole entry, looked up, the tested form may be a part): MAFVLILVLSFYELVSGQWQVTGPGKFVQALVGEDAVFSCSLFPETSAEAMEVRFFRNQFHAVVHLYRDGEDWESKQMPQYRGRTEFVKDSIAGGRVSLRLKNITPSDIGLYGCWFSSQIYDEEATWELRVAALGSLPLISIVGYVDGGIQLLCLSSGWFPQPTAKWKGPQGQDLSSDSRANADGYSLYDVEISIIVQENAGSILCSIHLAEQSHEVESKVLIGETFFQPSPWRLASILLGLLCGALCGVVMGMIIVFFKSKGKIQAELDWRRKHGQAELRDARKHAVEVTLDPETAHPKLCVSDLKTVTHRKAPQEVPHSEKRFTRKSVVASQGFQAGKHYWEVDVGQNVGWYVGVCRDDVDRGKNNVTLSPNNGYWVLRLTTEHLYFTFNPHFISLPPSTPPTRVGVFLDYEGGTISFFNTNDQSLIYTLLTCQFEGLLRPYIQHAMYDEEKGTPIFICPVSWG
molecule,measurement,setting,value
"LES Vγ4Vδ5 TCR, soluble, wild type γ:…>ATWEG--YKKLF (CDR3, as aligned)",ratio to parent,[1],0.72
"mo5 Vγ7Vδ2-2 TCR with the CDR2 and HV4 loops of human Vγ4, on Jurkat 76 cells","CD69 expression on transduced J76 cells in response to BTNL3.8-expressing target cells, over control (flow cytometry)",[2],> 3 fold
same,"TCR downmodulation on transduced J76 cells after co-culture with 293T.L3L8 cells, against WT Vγ4 TCR transductants (flow cytometry)",[2]; scale: % of the TCR downmodulation of WT Vγ4 TCR transductants,90
"LES Vγ4Vδ5 TCR, soluble, wild type γ:…>… (HV4; D>Y; G>A)",ratio to parent,[3],0.53
"LES Vγ4Vδ5 TCR, soluble, wild type γ:DSYT>KYSR (CDR2)",ratio to parent,[1],0.066
same,ratio to parent,[3],1.8
"LES Vγ4Vδ5 TCR, soluble, wild type δ:NSMF>YRKS (CDR1)",ratio to parent,[1],0.6
same,ratio to parent,[3],0.25
"mo5 Vγ7Vδ2-2 TCR with the HV4 loop of human Vγ4, on Jurkat 76 cells","CD69 expression on transduced J76 cells in response to BTNL3.8-expressing target cells, over control (flow cytometry)",[2],> 3 fold
BTNL3.8 heterodimer on 293T cells (from UniProt Q6UXE8;Q6UX41) EDWESK>KDQPFM (in BTNL3),response (gMFI fold relative to ctrl),soluble Vγ4Vδ1 TCR; [8],4.1
same,response (gMFI fold relative to ctrl),soluble Vγ4Vδ1 TCR; [9],7.7
same,response (gMFI fold relative to ctrl),soluble Vγ4Vδ1 TCR; [10],5
"LES Vγ4Vδ5 TCR, soluble, wild type γ:EGST>AWRY (CDR1)",ratio to parent,[1],1.3
same,ratio to parent,[3],6.6
BTNL3.8 heterodimer on 293T cells (from UniProt Q6UXE8;Q6UX41) NQFHA>GQFSS (in BTNL3),response (gMFI fold relative to ctrl),soluble Vγ4Vδ1 TCR; [8],1.2
same,response (gMFI fold relative to ctrl),soluble Vγ4Vδ1 TCR; [9],1.2
same,response (gMFI fold relative to ctrl),soluble Vγ4Vδ1 TCR; [10],1.4
"LES Vγ4Vδ5 TCR, soluble, wild type δ:RGYTG>EGSKW (CDR3)",ratio to parent,[1],0.3
"LES Vγ4Vδ5 TCR, soluble, wild type γ:…>… (HV4; K>N; M>L)",ratio to parent,[1],0.38
same,ratio to parent,[3],1.4
"LES Vγ4Vδ5 TCR, soluble, wild type δ:SSIK>RYRE (CDR2)",ratio to parent,[1],0.88
same,ratio to parent,[3],1
B1,Kd,[4],22.1 µM and 20.9 µM
same,Kd,[5],15 to 25 µM and 20.7 µM
same,percent of LES TCR binding to EPCR left with the competitor,[6],< 40%
same,Kd,[7],3.5 µM
same,dH,[7],-8.1 kcal/mol
